Measured values taken from the nanobody polyreactivity screen of Harvey et al. (2022).

Experiment: yeast display, Sf9 membrane polyspecificity reagent, FACS + sequencing; frameworks hold sequencing errors
In short: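 In a synthetic yeast display library (Saccharomyces cerevisiae BJ5465), nanobody expression was induced with galactose for 36–48 hours. FACS gates were set low and high (top ~1%) using anti-HA fluorescence for expression and streptavidin fluorescence for binding of the Sf9 membrane reagent. Each polyreactivity label is drawn from the gate of origin.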

**Q.** For “QVQLVESGGGLVQAGGSLRLSCAASGFTFFYYVMGWYRQAPGKERELVAAITRGGSTYYADSVKGRFTISRDNAKNTVYLQMNSLKPEDTAVYYCNVAEPGYYYGYGDYGMDYWGQGTQVTVSS”, which “polyreactivity (PSR sort gate)” value is on record?
**A.** The value was “high polyreactivity”.

**Q.** Which “polyreactivity (PSR sort gate)” value does the source give for “QVQLVESGGGLVQAGGSLRLSCAASGFTFGANVMGWYRQAPGKERELVAAINTRGSRTYYADSVKGRFTISRDIAKNTVYLQMNSLKPEDTAVYYCAAALRKEYDYWGQGTQVTVSS” here?
**A.** The value was “high polyreactivity”.

**Q.** For “QVQLVESGGGLVQAGGSLRLSCAASGFTFGANVMGWYRQAPGKERELVAAITSSGGSTYYADSVKGRFTISRDKAKNTVYLQMYSLKPEDTAVYYCNRRRGAYYGYYWGQGTQVTVSS”, which “polyreactivity (PSR sort gate)” value is on record?
**A.** Its value is “high polyreactivity”.

**Q.** For “QVQLVESGGGLVQAGGSLRLSCAASGFTFGDYAMYWVRQAPGKGLEWVSSIDSRGGSTYYADSVKGRFTISRDNAKNTVYLQMNSLKPEDTAVYYCAKPGNHRYDYWGQGTQVTVSS”, which “polyreactivity (PSR sort gate)” value is on record?
**A.** Its value is “high polyreactivity”.

**Q.** For “QVQLVESGGGLVQAGGSLRLSCAASGFTFGENAIGWYRQAPGKERELVAAIRYSGGSTYYADSVKGRFTISRDNAKNTVYLQMNSLKPEDTAVYYCNADTYALGAAVIPGDEYWGQGTQVTVSS”, which “polyreactivity (PSR sort gate)” value is on record?
**A.** Its value is “low polyreactivity”.

**Q.** For “QVQLVESGGGLVQAGGSLRLSCAASGFTFGENDMGWYRQAPGKERELVATISYSGDSTYYAVSVKGLFTISRVNGKNTVYLHMNSLKPEDTAVYYCAAPLPHRVYDEGYWRQGTQVTVSS”, which “polyreactivity (PSR sort gate)” value is on record?
**A.** The value was “low polyreactivity”.

**Q.** For “QVQLVESGGGLVQAGGSLRLSCAASGFTFGFNTMGWYRQAPGKERELVATITSGGSTYYADSVKGRFTISRDNAKNTVYLQMNILKPEDTAVYYCAATAGSPWAKSRYGYWGQGTQVTVSS”, which “polyreactivity (PSR sort gate)” value is on record?
**A.** Its value is “low polyreactivity”.

**Q.** Which “polyreactivity (PSR sort gate)” value does the source give for “QVQLVESGGGLVQAGGSLRLSCAASGFTFGFYAMGWYRQAPGEEWELVATISSAGSTTYADSVKGRFTLSRDNAKHTVYLQMNSLKPEETAVYYCATRRWSWPQFRTGDYWGQGTQVTVSS” here?
**A.** Its value is “high polyreactivity”.

**Q.** Which “polyreactivity (PSR sort gate)” value does the source give for “QVQLVESGGGLVQAGGSLRLSCAASGFTFGFYAMGWYRQAPGKERELVATINYNGGSTYYADSVKGRFTISRDNAKNTVYLEMNSLKPEDTAVYYCATDYGWAPSYWYDSCGQGTQVTVSS” here?
**A.** The value was “low polyreactivity”.

**Q.** For “QVQLVESGGGLVQAGGSLRLSCAASGFTFGHYAMGRYRQAPGKERELVAAIRWSGGSTYYADSVKGRFTISRDNAKNTVYLQMNSLKPEDTAVYYCAADGEDSLWTGYDYDYWGQGTQVTVSS”, which “polyreactivity (PSR sort gate)” value is on record?
**A.** Its value is “low polyreactivity”.

**Q.** Which “polyreactivity (PSR sort gate)” value does the source give for “QVQLVESGGGLVQAGGSLRLSCAASGFTFGHYAMGWDRQAPGKERELVAAISSGDRTYYADSVKGRFTISRDNAKNTVYLQMNSLKPEDTAVYSCNAVYYSWAQSARFDYWGQGTQVTVSS” here?
**A.** Its value is “low polyreactivity”.

**Q.** With “QVQLVESGGGLVQAGGSLRLSCAASGFTFGHYAMGWYRQAPGKERELVAAIRWSGGSTYYADSVKGRITISRDHAKNTVYLQMNSLKPEDTAVYYCGARRFDGYDYDYWGQGTQVTESS” as the sequence, how does the “polyreactivity (PSR sort gate)” value read?
**A.** The value was “low polyreactivity”.

**Q.** For “QVQLVESGGGLVQAGGSLRLSCAASGFTFGKYDMGWYRQAPGKERELVATITSSGDSTYYADSVKGRFTISRDNAKNTVYLQMNSLKPEDTAVYYCATPYGRHGWFYLYDYWGQGTQVTVSS”, which “polyreactivity (PSR sort gate)” value is on record?
**A.** The value was “low polyreactivity”.

**Q.** For “QVQLVESGGGLVQAGGSLRLSCAASGFTFGLNAMGWYRQAPGKERELVAGISRNGGRTYYADSVKGRFTISRDNAKNTVYLQMNSLKPDDTAVYYCNKVVSTYWTKSRVQWRYSRYDYWGQGTQVTVSS”, which “polyreactivity (PSR sort gate)” value is on record?
**A.** Its value is “high polyreactivity”.

**Q.** For “QVQLVESGGGLVQAGGSLRLSCAASGFTFGNNAMGWYRQAPGKERELVAGISRTGGRTYYADSVKGRFTISRDNAKNTVYLQMNSLKPEDTAVYYCNAVSTLYTGYDYWGQGTQVTVSS”, which “polyreactivity (PSR sort gate)” value is on record?
**A.** The value was “high polyreactivity”.

**Q.** For “QVQLVESGGGLVQAGGSLRLSCAASGFTFGNNAMGWYRQAPGTERELVAAISYGGGRTYYADSVKGRFTISRDNAKNTVYLQMNSLKPEDTAVYYCAKDPKYPLSGGYDYWGQGTQVTVSS”, which “polyreactivity (PSR sort gate)” value is on record?
**A.** The value was “low polyreactivity”.

**Q.** With “QVQLVESGGGLVQAGGSLRLSCAASGFTFGNYAMGWYRQAPGKERELVAVISRSGGNTYYADSVKGRFTISRDNAKNTVYLQMNSLKPEDTAVYYCAATLVGKVFRRFDYWGQGTQVTVSS” as the sequence, how does the “polyreactivity (PSR sort gate)” value read?
**A.** The value was “high polyreactivity”.

**Q.** For “QVQLVESGGGLVQAGGSLRLSCAASGFTFGPNTMGWYRQAPGKERELVAAISARGGRTYYADSVKGRFTISRDTAKNTVYLQMNSLKPEDTAVYYCAAPGYVRTGVTYGGYYWGQGTQVTVSS”, which “polyreactivity (PSR sort gate)” value is on record?
**A.** The value was “high polyreactivity”.

**Q.** For “QVQLVESGGGLVQAGGSLRLSCAASGFTFGPYTMGWYRQAPGKERELVAAISRSGTGTYYADSVKGRFTISRDNAKNTVYLQMNSLKPEDTAVYYCAADNGDNHGYYWGQGTQVTLSS”, which “polyreactivity (PSR sort gate)” value is on record?
**A.** The value was “high polyreactivity”.

**Q.** For “QVQLVESGGGLVQAGGSLRLSCAASGFTFGRNAIVWYRQAPGKERELVASIDWSGGSTYYADSVKGRFTISRDNAKNTVYLQMNSLKPEDTAVYYCAVGPNSVGNRSYGFDYWGQGTQVTVSS”, which “polyreactivity (PSR sort gate)” value is on record?
**A.** Its value is “low polyreactivity”.

**Q.** For “QVQLVESGGGLVQAGGSLRLSCAASGFTFGRYAMGWYRQAPGKEREFVAAITWSGGGTYYADSVKGRFTISRDNAKNTVYLQMNSLKPEDTAVYYCAADRRAYGGGYWGQRTQVTVSS”, which “polyreactivity (PSR sort gate)” value is on record?
**A.** The value was “high polyreactivity”.

**Q.** With “QVQLVESGGGLVQAGGSLRLSCAASGFTFGRYAMGWYRQAPGKERELLAGITWSGGSTSYADSVKGRFTISRDNAKNTVYFQMNSLKPEDTAVYYCATRARYTRVQGRRYAYDYWGQGTQVTVSS” as the sequence, how does the “polyreactivity (PSR sort gate)” value read?
**A.** The value was “high polyreactivity”.

**Q.** For “QVQLVESGGGLVQAGGSLRLSCAASGFTFGRYAMGWYRQAPGKERELVAAINYTDGSTYYADSVKGRFTISRDNAKNTVYLQMNSLKPEDTAGYYCAATTLSFEGGKYWSKYDYWGQGTQVTVSS”, which “polyreactivity (PSR sort gate)” value is on record?
**A.** The value was “low polyreactivity”.

**Q.** Which “polyreactivity (PSR sort gate)” value does the source give for “QVQLVESGGGLVQAGGSLRLSCAASGFTFGRYAMGWYRQAPGKERELVAAISFSGGRTYYADSVKGRFTISRDNAKNTVYLQMNSLKPEDTAVYYCNTAYWYSLYDYWGQGTQVTVSS” here?
**A.** Its value is “high polyreactivity”.

**Q.** With “QVQLVESGGGLVQAGGSLRLSCAASGFTFGRYAMGWYRQAPGKERELVAAITRGSGGTYYADSVKGRFTISRDNAKNTVYLQMNSLKPEDTAVYYCATGSRSRGALRYAHFDYWGQGTQVTESS” as the sequence, how does the “polyreactivity (PSR sort gate)” value read?
**A.** The value was “high polyreactivity”.

**Q.** For “QVQLVESGGGLVQAGGSLRLSCAASGFTFGRYAMGWYRQAPGKERELVAAITWSGGTTTYYADSVKGRFTISRDNAKNTVYLQMTSLKPEDTAVYYCAADLYFYIYSYNYWGQGTQVTVSS”, which “polyreactivity (PSR sort gate)” value is on record?
**A.** Its value is “low polyreactivity”.

**Q.** With “QVQLVESGGGLVQAGGSLRLSCAASGFTFGRYAMGWYRQAPWKERELVADITWSGGSTYYADSVKGRFSISRDFAKNTVYLQMNSLKPEDTAVYYCNRLSKNREYDYWGQGTQVNVSS” as the sequence, how does the “polyreactivity (PSR sort gate)” value read?
**A.** The value was “high polyreactivity”.

**Q.** With “QVQLVESGGGLVQAGGSLRLSCAASGFTFGSNAMGWYRQAPGKERELVAAISWSGGRTYYADSVKGRFTISRDNAKNTVYLQMNSLKPEDTAVYYCNKQYVKPWYRGYYYWGQGTQVTVSS” as the sequence, how does the “polyreactivity (PSR sort gate)” value read?
**A.** Its value is “high polyreactivity”.

**Q.** For “QVQLVESGGGLVQAGGSLRLSCAASGFTFGSNTMGWYRQAPGKERELVAAITTSGDSTYYADSVKGRFTISRDNAKNTVYLQMNSLKPEDTAVYYCAAERRYGRYYRLVRLLGQGTQVTVSS”, which “polyreactivity (PSR sort gate)” value is on record?
**A.** Its value is “high polyreactivity”.

**Q.** Which “polyreactivity (PSR sort gate)” value does the source give for “QVQLVESGGGLVQAGGSLRLSCAASGFTFGSYAMGWYRQAPGKEREFVAAIRRSGSSTYYADSVKGRFTISRDNAKNTVYLQMTSLKPEDTAVYYCAADVYRRLRRYRYYYWGQGTQVTVSS” here?
**A.** Its value is “low polyreactivity”.

**Q.** With “QVQLVESGGGLVQAGGSLRLSCAASGFTFGSYAMGWYRQAPGKEREFVAAISLGGARTYYADSVKGRFTISRDNAKNTVYLQMNSLKPEDTAVYYCNARGIGRSTKWSSRDYWGQGTQVTVSS” as the sequence, how does the “polyreactivity (PSR sort gate)” value read?
**A.** Its value is “high polyreactivity”.
